Measured values taken from US20190177366.

Assays:
Compound 26 = test system: T1, Compound 26
T1 sequence: SGCFIPWNLQRIGLLC

Pep2-8-ctrl = test system: T2, Pep2-8-ctrl
T2 sequence: TVATSAEEYLLWV

Compound 118 = test system: T3, Compound 118
T3 sequence: WNLVXIGLTR

Compound 29 = test system: T4, Compound 29
T4 sequence: SGCFIPWNLQRIGLLC

Pep2-8 = test system: T5, Pep2-8
T5 sequence: TVFTSWEEYLDWV

PCSK9-R167A:R215A:R218A
FXIa cleavage of the P′ helix (immunoblot) (Compound 26): both groove binding peptides accelerated the cleavage reaction, leading to almost complete cleavage of the P′ helix | FXIa cleavage of the P′ helix (immunoblot) (Pep2-8-ctrl): The control peptide did not inhibit cleavage and gave similar results as the buffer control | FXIa cleavage of the P′ helix (immunoblot) (Compound 118): resulted in a higher degree of P′ helix cleavage by FXIa as compared to the peptide Compound 112 | FXIa cleavage of the P′ helix (immunoblot) (Compound 29): both groove binding peptides accelerated the cleavage reaction, leading to almost complete cleavage of the P′ helix | FXIa cleavage of the P′ helix (immunoblot) (Pep2-8): both reagents largely prevented cleavage of the P′ helix by FXIa
